Like-named read-outs stand apart in the source and are kept apart here. Bridge positions count the residues as written; N and C are the ends. Square brackets hold non-standard residues; d marks the D form. Peptide text beside a SMILES is read from it. * marks the point of attachment. ξ: configuration not given here. X1 = CN(C)c1ccc2c(c1)Oc1cc(N(C)C)ccc1C21OC(=O)c2ccc(C(=O)*)cc21; MethylRed = CN(C)c1ccc(/N=N/c2ccccc2C(=O)*)cc1; NBD = O=[N+]([O-])c1ccc(*)c2nonc12; dDab = NCC[C@@H](N)C(=O)O; Dab = NCC[C@H](N)C(=O)O; AEEA = NCCOCCOCC(=O)O; ξDab = NCCC(N)C(=O)O; ξK = NCCCCC(N)C(=O)O; ξV = CC(C)C(N)C(=O)O; ξP = O=C(O)C1CCCN1; ξA = CC(N)C(=O)O

Data set [1] has as its system Methicillin sensitive Staphylococcus aureus (MSSA). Description: Elastase dependant bacterial labelling in co-culture of bacteria and isolated human neutrophils (confocal). Format: cell-based. From the text:
FIG. 2A: Elastase dependant bacterial labelling scheme.
FIG. 2B: Elastase dependant bacterial labelling in vitro.
A first example of elastase sensitive probes (shown schematically in FIG. 2A) comprises methyl red (acting as a dark quencher) connected via the peptide sequence AAPV (acting as the linker) to 7-nitrobenz-2-oxa-1,3-diazole (NBD) and the ubiquicidin fragment UBI29-41 (together acting as the probe element). Accordingly, the NBD fluorescence is quenched by the methyl red and no fluorescent signal will be observed (i.e. the methyl red and NBD are acting as a FRET pair) and therefore, whether or not the probe is bound to any bacteria that may be present in the target area via UBI29-41, no signal is observed using confocal microscopy.
When the probe is in the presence of human neutrophil elastase (HNE), such as in inflamed tissue, HNE cleaves the peptide sequence of the linker, to thereby free the probe element from the methyl red quencher. Accordingly, the NBD fluorophore is no longer quenched and produces a fluorescent signal. In addition, due to the environmental sensitivity of the NBD, the signal produced is greatly amplified if the NBD is in a hydrophobic environment, such as within a cell membrane.

Data set [2] is described as follows: Stability in saline or BALF from patients with Acute Lung Injury (MALDI-TOF / FTMS). The note with it: incubated for 30 minutes. As to the method:
FIG. 16: NBD-UBIdend is stable in ALI BALF. […] NBD-PMX is stable in ALI BALF.
Secondly we assessed stability of the probes in broncholalveolar lavage fluid (BALF) from patients with Acute Lung Injury (ALI) by Fourier Transform Mass Spectrometry (FTMS) and Matrix-Assisted Laser Desorption/Ionization Time-of-Flight Mass Spectrometry (MALDI-TOF MS) analysis. NBD-UBINle, NBD-UBIdend and NBD-PMX were incubated for 30 minutes with BALF (FIG. 16).
In vitro labelling was assessed on benchtop confocal in the presence of compound with bacteria and labelling was compared to NBD-UBINle which served as a reference control for bacterial labelling. […] For the ex vivo and in vivo ovine lung experiments each compound was assessed in a control lung segment (instilled with 2 ml PBS) or a bacterial segment (instilled with 2 ml of 2 optical density of bacteria). Following bacterial instillation, the compound was administered to the segment of interest and this was imaged by probe based confocal laser endomicroscopy (FCFM).
Probe was added to saline or pooled BALF from patients with ALI incubated for 30 minutes. A ZipTip (C-18, 0.2 μL) with 5 μL MeCN (with 0.1% TFA as an additive) followed by 20 μL of H2O was washed. The ZipTip was loaded with the sample, washed and eluted into 5 μL of 80% aq. MeCN (with 0.1% TFA as an additive). The sample was analysed by MALDI-TOF (PerSeptive Biosystems Voyager DETMSTR MALDI-TOF mass spectrometer (Applied Biosystems, Foster City, Calif.)).

The nature of data set [3]: Rodent single dose intratracheal toxicity assessment. Format: in vivo, Mice. The arrangement: Creatinine / Bilirubin / Albumin: unit not given here.
The subject of the next data set is human erythrocytes. Description: Haemolysis assay. The note with it: up to 100 μM; 0.2% Triton-X = 100%.
For data set [4], the system named is Pseudomonas aueriginosa (PA). From the text:
(§1) FIG. 3A: Elastase dependant bacterial labelling scheme. The fluorophore on the bacterial binding component is quenched by a different fluorophore of a longer wavelength meaning that no fluorescence is seen upon binding to bacteria. Cleavage of the elastase specific sequence AAPV liberates the bacterial binding component (PV-NBD-UBI) from the quencher (TAMRA). TAMRA reports the presence of activated neutrophils by endocytic uptake.
(§2) FIG. 3B: Elastase dependant bacterial labelling in vitro.
In a second example, the probe comprises carboxytetramethylrhodamine (TAMRA, acting as a fluorescent quencher) connected to NBD and polymyxin (acting as the probe element) via the peptide sequence AAPV (acting as the linker). Accordingly, the NBD fluorescence is quenched by the TAMRA to give rise to a fluorescent signal from TAMRA (i.e. the TAMRA is accepting the energy absorbed by the NBD and is itself fluorescing, TAMRA and NBD are acting as a FRET pair). Accordingly, whether or not the polymyxin has bound to any bacteria that may be present, only a signal from the TAMRA is observed.

A further data set has as its system activated neutrophils. The note with it: TAMRA signal (red).
From the text: as §1, §2

For another data set, the target named is elastase (Homo sapiens, UniProt P08246). The conditions noted are these: ex 525, Em 580.
Sequence of elastase (P08246 30-247 limits assumed): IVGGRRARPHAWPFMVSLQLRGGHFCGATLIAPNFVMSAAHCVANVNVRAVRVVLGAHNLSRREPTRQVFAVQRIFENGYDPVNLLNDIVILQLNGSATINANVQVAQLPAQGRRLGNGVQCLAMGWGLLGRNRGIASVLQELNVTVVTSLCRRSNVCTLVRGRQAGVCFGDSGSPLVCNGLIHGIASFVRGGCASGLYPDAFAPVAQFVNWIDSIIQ

Procedure for human erythrocytes: Positive control was 0.2% Triton-X and values corrected to represent 100% haemolysis for Triton-X.
Erythrocytes were isolated from freshly drawn, anticoagulated human blood and resuspended to 20 vol % in PBS (pH 7.4). In a 96-well microtiter plate, 100 μl of erythrocyte suspension was added to 100 μl of NLLP solution in PBS (prepared by 1:2 serial dilutions) or 100 μl of PBS in the case of negative controls. One-hundred percent haemolysis wells contained 100 μl of red cell suspension with 100 μl of 0.2 vol % Triton X-100. The plate was incubated for 1 h at 37° C., and then each well was diluted with 150 μl of PBS. The plate was then centrifuged at 1,200 g for 15 min, 100 μl of the supernatant from each well was transferred to a fresh microtiter plate, and A350 was measured. Percentage of haemolysis was determined as (A−A0)/(Atotal−A0)×100, where A is the absorbance of the test well, A0 the absorbance of the negative controls, and Atotal the absorbance of 100% haemolysis wells, all at 350 nm on a Biotek plate reader.

In the case of `CSCCC(NC(=O)C(CCCNC(=N)N)NC(=O)C(CCCNC(=N)N)NC(=O)C(CCCCN)NC(=O)C(C)NC(=O)C(CCCNC(=N)N)NC(=O)CNC(=O)C(NC(=O)COCCOCCNC(=O)C(CCCCNc1ccc([N+](=O)[O-])c2nonc12)NC(=O)C(NC(=O)C1CCCN1C(=O)C(C)NC(=O)C(C)NC(=O)c1ccccc1/N=N/c1ccc(N(C)C)cc1)C(C)C)C(C)O)C(=O)NC(CCC(N)=O)C(=O)NC(Cc1ccc(O)cc1)C(=O)NC(CC(N)=O)C(=O)NC(CCCNC(=N)N)C(=O)NC(CCCNC(=N)N)C(N)=O` (centres unmarked) [Example 1] (MethylRed-AAPVK(NBD)[AEEA]TGRAKRRMQYNRR-NH2; configuration not given here), the “bacterial labelling in co-culture of bacteria and neutrophils” value in data set [1] (confocal, neutrophil derived HNE present) is “ability of the probe to be cleaved by neutrophil derived HNE and to label bacteria”. Besides, the “bacterial labelling with elastase inhibitor” value in data set [1] (elastase inhibitor sivelestat added to the medium) is recorded as “no labelling was observed”.
For the compound `CCCC[C@H](NC(=O)[C@H](CCCNC(=N)N)NC(=O)[C@H](CCCNC(=N)N)NC(=O)[C@H](CCCCN)NC(=O)[C@H](C)NC(=O)[C@H](CCCNC(=N)N)NC(=O)CNC(=O)[C@@H](NC(=O)COCCOCCNc1ccc([N+](=O)[O-])c2nonc12)[C@@H](C)O)C(=O)N[C@@H](CCC(N)=O)C(=O)N[C@@H](Cc1ccc(O)cc1)C(=O)N[C@@H](CC(N)=O)C(=O)N[C@@H](CCCNC(=N)N)C(=O)N[C@@H](CCCNC(=N)N)C(=O)NCCOCCOCC(=O)NCCCOCC(COCCCNC(=O)COCCOCCNC(=O)[C@H](CCCNC(=N)N)NC(=O)[C@H](CCCNC(=N)N)NC(=O)[C@H](CC(N)=O)NC(=O)[C@H](Cc1ccc(O)cc1)NC(=O)[C@H](CCC(N)=O)NC(=O)[C@H](CCCC)NC(=O)[C@H](CCCNC(=N)N)NC(=O)[C@H](CCCNC(=N)N)NC(=O)[C@H](CCCCN)NC(=O)[C@H](C)NC(=O)[C@H](CCCNC(=N)N)NC(=O)CNC(=O)[C@@H](NC(=O)COCCOCCNc1ccc([N+](=O)[O-])c2nonc12)[C@@H](C)O)(COCCCNC(=O)COCCOCCNC(=O)[C@H](CCCNC(=N)N)NC(=O)[C@H](CCCNC(=N)N)NC(=O)[C@H](CC(N)=O)NC(=O)[C@H](Cc1ccc(O)cc1)NC(=O)[C@H](CCC(N)=O)NC(=O)[C@H](CCCC)NC(=O)[C@H](CCCNC(=N)N)NC(=O)[C@H](CCCNC(=N)N)NC(=O)[C@H](CCCCN)NC(=O)[C@H](C)NC(=O)[C@H](CCCNC(=N)N)NC(=O)CNC(=O)[C@@H](NC(=O)COCCOCCNc1ccc([N+](=O)[O-])c2nonc12)[C@@H](C)O)NC(N)=O` (some centres unmarked) [NBD-UBIdend], in data set [2], the “stability in ALI BALF” value is “demonstrate stability”; the stability in saline entry was “readily identified in both saline and BALF incubated samples”. Moreover, in data set [3] (48 hours), the ALP amounted to 222.3 ± 80.3 u/l, the ALT came to 24.0 ± 1.2 u/l, the Albumin came to 22.3 ± 1.8 and the BALF was 477.1 ± 150.6 Cells/ul. For the same compound, in data set [3] (48 hours), the Bilirubin is 2 ± 0, the Creatinine worked out at 8.3 ± 0.7, the “Cytospin (% of Neutrophils)” value worked out at 3.6% and the “Cytospin (% of Red Blood Cells)” value was found to be 0%. Also, the PenH value in data set [3] (48 hours) worked out at 0.5 ± 0.06. Also, the “Cytospin (% of Mononuclear cells)” value in data set [3] (48 hours, single intratracheal 100 μg/25 g mouse) amounted to 96.4%. In data set [3] (14 days), this compound registered an ALP of 227.0 ± 27.1 u/l, an ALT of 28.3 ± 1.9 u/l, an Albumin of 25.0 ± 1.2 and a BALF of 342.7 ± 6.5 Cells/ul. Moreover, in data set [3] (14 days), the Bilirubin is 2 ± 0, the Creatinine amounted to 9.0 ± 1.5, the “Cytospin (% of Neutrophils)” value is on record as 0% and the “Cytospin (% of Red Blood Cells)” value worked out at 0%. For the same compound, in data set [3] (14 days), the PenH value stood at 0.5 ± 0.04. Moreover, in data set [3] (14 days, single intratracheal 100 μg/25 g mouse), the “Cytospin (% of Mononuclear cells)” value is given as 100%. In addition, in data set [3] (single instillation, 48 hours and 14 days, compared to PBS control), the “organ toxicity (histology)” value is “no organ toxicity”. Besides, the toxicity entry in data set [3] (single intratracheal 100 μg/25 g mouse, 48 hours and 14 days) is reported as “no toxicity”. For the same compound, in the data set on human erythrocytes, the red cell haemolysis result was “no red cell haemolysis”.
For the compound `CC(C)C[C@@H]1NC(=O)[C@@H](Cc2ccccc2)NC(=O)[C@@H](CCN)NC(=O)C(NC(=O)[C@H](CCN)NC(=O)[C@@H](NC(=O)COCCOCCNC(=O)C(CCCCNc2ccc([N+](=O)[O-])c3nonc23)NC(=O)C(NC(=O)C2CCCN2C(=O)C(C)NC(=O)C(C)NC(=O)c2ccc3c(c2)C2(OC3=O)c3ccc(N(C)C)cc3Oc3cc(N(C)C)ccc32)C(C)C)[C@@H](C)O)CCNC(=O)[C@@H]([C@H](C)O)NC(=O)[C@H](CCN)NC(=O)[C@H](CCN)NC1=O` (some centres unmarked) [TAMRA-AAPV-NBD-PMX] (X1-[ξA][ξA][ξP][ξV][ξK](NBD)[AEEA]T[Dab][ξDab][dDab][dF]L[Dab][Dab][dT]; lactam 9-C), the bacterial labelling result in data set [4] (activated neutrophils, NBD signal (green)) is given as “bacterial labelling (shown in green) in an elastase dependent manner”; in data set [4] (unactivated neutrophils), “no labelling in the presence of unactivated neutrophils”. Besides, the “labelling of activated neutrophils” value in the data set with activated neutrophils was “labelling of activated neutrophils (shown in red) in an elastase independent manner”. The “fluorescence of TAMRA following cleavage, with elastase inhibitor” value on elastase (elastase inhibitor) is given as “inhibited with an elastase inhibitor”. The “fluorescence of TAMRA following cleavage” value on elastase (with elastase) was “increase in fluorescence of TAMRA-AA (cleaved compound) compared to TAMRA-AAPV-NBD-PMX in an elastase dependent manner”.

The record behind these values is patent US10648979B2, “Molecular probes for detecting gram-negative bacteria in vitro and in vivo” (priority 2014, dated 2020).
